Each block holds one binder with its values, some of them ahead of it.
Experiments:
[1] = target: T1, pol κ76 (76 kDa alternatively spliced isoform product of POLK) (human, UniProt Q9UBT6 1-870); experiment: yeast two-hybrid
T1 construct: Tested as a yeast two-hybrid fusion (FLAG-modified pGBT9 / pGAD424); also called 76-kDa pol κ isoform
T1 sequence: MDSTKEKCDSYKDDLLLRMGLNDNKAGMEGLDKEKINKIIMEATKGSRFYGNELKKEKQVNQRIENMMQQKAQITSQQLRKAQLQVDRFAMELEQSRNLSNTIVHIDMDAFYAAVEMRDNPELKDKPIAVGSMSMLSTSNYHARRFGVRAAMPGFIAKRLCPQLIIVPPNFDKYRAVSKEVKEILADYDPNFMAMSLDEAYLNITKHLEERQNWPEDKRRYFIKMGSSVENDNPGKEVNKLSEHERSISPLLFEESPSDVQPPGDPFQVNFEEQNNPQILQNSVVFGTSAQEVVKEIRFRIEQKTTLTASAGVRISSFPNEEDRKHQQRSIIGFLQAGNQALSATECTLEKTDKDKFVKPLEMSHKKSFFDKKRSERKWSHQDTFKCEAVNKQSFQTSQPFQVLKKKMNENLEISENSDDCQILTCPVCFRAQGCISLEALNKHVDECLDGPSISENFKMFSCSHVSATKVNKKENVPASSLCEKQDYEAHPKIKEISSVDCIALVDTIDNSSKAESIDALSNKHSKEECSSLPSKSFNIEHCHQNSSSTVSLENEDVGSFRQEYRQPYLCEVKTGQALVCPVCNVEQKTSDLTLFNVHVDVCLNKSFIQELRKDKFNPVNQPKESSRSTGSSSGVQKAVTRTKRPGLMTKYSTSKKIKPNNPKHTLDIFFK

[2] = target: T2, pol κ (primary protein product of POLK; DNA polymerase κ) (human, UniProt Q9UBT6 1-870); experiment: yeast two-hybrid
T2 construct: Tested as a yeast two-hybrid fusion (FLAG-modified pGBT9 / pGAD424); also called DINB1 product
T2 sequence (looked up): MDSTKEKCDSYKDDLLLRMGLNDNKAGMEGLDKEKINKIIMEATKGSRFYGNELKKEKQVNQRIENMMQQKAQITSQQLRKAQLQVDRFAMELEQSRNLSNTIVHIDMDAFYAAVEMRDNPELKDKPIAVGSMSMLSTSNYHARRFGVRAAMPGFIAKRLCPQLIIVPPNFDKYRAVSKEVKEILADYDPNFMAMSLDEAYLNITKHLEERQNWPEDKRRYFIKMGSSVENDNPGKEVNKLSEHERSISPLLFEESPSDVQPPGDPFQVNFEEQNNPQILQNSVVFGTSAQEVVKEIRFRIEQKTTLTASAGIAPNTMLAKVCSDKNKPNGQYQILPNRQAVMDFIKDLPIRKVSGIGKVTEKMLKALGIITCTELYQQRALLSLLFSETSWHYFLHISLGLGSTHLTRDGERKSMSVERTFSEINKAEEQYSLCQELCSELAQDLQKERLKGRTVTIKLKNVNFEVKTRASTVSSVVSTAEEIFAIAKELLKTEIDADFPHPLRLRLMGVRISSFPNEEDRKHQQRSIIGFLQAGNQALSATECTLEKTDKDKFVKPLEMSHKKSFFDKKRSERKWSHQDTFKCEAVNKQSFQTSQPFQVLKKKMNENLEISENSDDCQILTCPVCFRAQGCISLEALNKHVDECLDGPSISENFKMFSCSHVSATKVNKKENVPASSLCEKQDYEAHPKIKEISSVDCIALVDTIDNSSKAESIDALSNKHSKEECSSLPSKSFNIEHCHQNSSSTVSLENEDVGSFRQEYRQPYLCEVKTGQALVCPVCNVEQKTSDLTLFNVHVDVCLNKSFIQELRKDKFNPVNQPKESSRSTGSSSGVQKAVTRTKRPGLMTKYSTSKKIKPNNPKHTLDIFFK

binding result [1]: no binding
binding result [2]: no binding
B1: GPBP (Goodpasture antigen binding protein) (enzyme, UniProt Q9Y5P4 1-624, looked up)
chain: MSDNQSWNSSGSEEDPETESGPPVERCGVLSKWTNYIHGWQDRWVVLKNNALSYYKSEDETEYGCRGSICLSKAVITPHDFDECRFDISVNDSVWYLRAQDPDHRQQWIDAIEQHKTESGYGSESSLRRHGSMVSLVSGASGYSATSTSSFKKGHSLREKLAEMETFRDILCRQVDTLQKYFDACADAVSKDELQRDKVVEDDEDDFPTTRSDGDFLHSTNGNKEKLFPHVTPKGINGIDFKGEAITFKATTAGILATLSHCIELMVKREDSWQKRLDKETEKKRRTEEAYKNAMTELKKKSHFGGPDYEEGPNSLINEEEFFDAVEAALDRQDKIEEQSQSEKVRLHWPTSLPSGDAFSSVGTHRFVQKPYSRSSSMSSIDLVSASDDVHRFSSQVEEMVQNHMTYSLQDVGGDANWQLVVEEGEMKVYRREVEENGIVLDPLKATHAVKGVTGHEVCNYFWNVDVRNDWETTIENFHVVETLADNAIIIYQTHKRVWPASQRDVLYLSVIRKIPALTENDPETWIVCNFSVDHDSAPLNNRCVRAKINVAMICQTLVSPPEGNQEISRDNILCKITYVANVNPGGWAPASVLRAVAKREYPKFLKRFTSYVQEKTAGKPILF
notes: Two-hybrid construct (fusion domain, limits, species) is not described; also called product of COL4A3BP

binding result [1]: no binding
binding result [2]: no binding
B2: GPBPΔ26 (Goodpasture antigen binding protein alternatively spliced product deleted for 26 amino acid residues) (enzyme)
chain: MSDNQSWNSSGSEEDPETESGPPVERCGVLSKWTNYIHGWQDRWVVLKNNALSYYKSEDETEYGCRGSICLSKAVITPHDFDECRFDISVNDSVWYLRAQDPDHRQQWIDAIEQHKTESGYGSESSLRRHGSMVSLVSGASGYSATSTSSFKKGHSLREKLAEMETFRDILCRQVDTLQKYFDACADAVSKDELQRDKVVEDDEDDFPTTRSDGDFLHSTNGNKEKLFPHVTPKGINGIDFKGEAITFKATTAGILATLSHCIELMVKREDSWQKRLDKETEKKRRTEEAYKNAMTELKKKSHFGGPDYEEGPNSLINEEEFFDAVEAALDRQDKIEEQSQSEKVRLHWPTSLPSGDAFSSVGTHRFVQKVEEMVQNHMTYSLQDVGGDANWQLVVEEGEMKVYRREVEENGIVLDPLKATHAVKGVTGHEVCNYFWNVDVRNDWETTIENFHVVETLADNAIIIYQTHKRVWPASQRDVLYLSVIRKIPALTENDPETWIVCNFSVDHDSAPLNNRCVRAKINVAMICQTLVSPPEGNQEISRDNILCKITYVANVNPGGWAPASVLRAVAKREYPKFLKRFTSYVQEKTAGKPILF
notes: Splice isoform of the entry named (26 residues deleted); Two-hybrid construct not described; also called GPBPΔ26

From patent publication US20030082745A1 (published 2003)
